Results as given in article PMC10266016 (Proceedings of the National Academy of Sciences of the …, 2023).
Substitutions are numbered along the chain they refer to. Values belong to the molecule of their own block, whether it stands above or below them.

Columns and labels:
Experiment in all cases: ITC
[1] = target: Human Scribble PDZ3 domain (human) (UniProt Q14160)
[2] = target: Human Scribble PDZ1 domain (human) (UniProt Q14160)
Scribble PDZ1 R762A = Scribble PDZ1 R762A (human, UniProt Q14160 700-816, R762A)
Chain of Scribble PDZ1 R762A (Q14160 700-816 R762A): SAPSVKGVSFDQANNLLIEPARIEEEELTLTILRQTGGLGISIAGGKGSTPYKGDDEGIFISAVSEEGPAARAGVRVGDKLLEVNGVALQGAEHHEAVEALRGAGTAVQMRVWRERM

[3] = target: T1, Human Scribble PDZ3 domain (human, UniProt Q14160 1002-1092)
T1 sequence: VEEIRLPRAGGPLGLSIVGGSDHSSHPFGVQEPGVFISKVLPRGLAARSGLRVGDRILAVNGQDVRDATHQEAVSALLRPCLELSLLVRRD

[4] = target: Human Scribble PDZ1 domain (human, UniProt Q14160 700-816)
Chain of Human Scribble PDZ1 domain (Q14160 700-816): as the sequence (Q14160 700-816 R762A) above, with A63R counted along it

Scribble PDZ3 K1040A = target: T2, Scribble PDZ3 K1040A (human, UniProt Q14160 1002-1092, K1040A)
T2 sequence: T1 sequence with K39A

Chain of Human Scribble PDZ1 domain (human) (Q14160 700-816): as the sequence (Q14160 700-816 R762A) above, with A63R counted along it

Kd [1]: 17.1 µM
Kd [2]: 57 µM
Molecule: PTHR PBM peptide, 4-mer

Kd (Scribble PDZ1 R762A): 39.9 µM
Kd [3]: 13.4 µM
Kd [4]: 31.7 µM
Kd (Scribble PDZ3 K1040A): 23.5 µM
B1: PTHR PBM peptide, 8-mer (peptide)
peptide: QEEWETVM

Kd [3]: 19.2 µM
Kd [4]: 11.5 µM
B2: PTHR PBM peptide, 22-mer (peptide)
peptide: DEEASGPERPPALLQEEWETVM
